From publication doi:10.1101/2021.07.28.453719 (bioRxiv, 2021)
No end group written: not given here.

How the values were obtained:
[1] = target: first bromodomain (BD1) of BRD3, wild type (human, UniProt Q15059); experiment: ITC
[2] = target: first bromodomain (BD1) of BRD4, wild type (human, UniProt O60885); experiment: ITC

first bromodomain (BD1) of BRD3, wild type, sequence (Q15059 24-144): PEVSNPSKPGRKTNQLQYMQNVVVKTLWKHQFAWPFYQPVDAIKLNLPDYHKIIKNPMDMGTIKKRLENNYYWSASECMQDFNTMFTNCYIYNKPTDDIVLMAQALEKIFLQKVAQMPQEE

B1: diacetylated ILF3 peptide 10 (AKacGLLLKacG) (peptide)
peptide: AK(Ac)GLLLK(Ac)G
[1]
  binding result: binds
[2]
  Kd: 167 ± 28 µM

B2: ILF3 variant peptide AKacGALLKacG (aa 99-106) 15 carrying L102A (peptide)
peptide: AK(Ac)GALLK(Ac)G
[2]
  Kd: 60 ± 10 µM
